Experimental data reported in patent publication EP4707300A1 (Beijing Wisdomab Biotechnology Co., Ltd, dated 2026).
Positions count from the first letter of the chain named.

T1: cynomolgus monkey IL-15 (mfIL-15+mfIL-15Rα complex), tag on IL-15Rα not stated (cynomolgus monkey (Macaca fascicularis), UniProt P40221 49-162; Q13261 31-128)
T1 construct: also called monkey IL-15+IL-15Rα superagonist
T1 chain 1: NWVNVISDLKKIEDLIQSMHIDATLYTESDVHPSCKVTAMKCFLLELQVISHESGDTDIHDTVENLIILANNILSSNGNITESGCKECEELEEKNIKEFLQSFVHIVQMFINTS
T1 chain 2: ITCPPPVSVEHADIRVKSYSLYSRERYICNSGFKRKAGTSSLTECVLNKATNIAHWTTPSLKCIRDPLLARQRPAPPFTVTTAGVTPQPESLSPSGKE

B1: anti-human IL-15 monoclonal antibody R26H10 (antibody, V domains shown)
VH: QVTLKESGPVLVKPTETLTLTCTVSGFSLTTYAVHWIRQPPGKALEWLGVIWGAGSTDYNPSFMSRLTISKDTSKSQVVLTMTNMDPVDTATYYCAKNAAYYVMDYWGQGTTVTVSS
VL: EIVLTQSPGTLSLSPGERATLSCRASQSVIYSYLAWYQQKPGQAPRLLIYAASKLASGIPDRFSGSGSGTDFTLTISRLEPEDFAVYYCQQRASYPLTFGQGTKVEIK
notes: Humanized mutant of R6E11 with a fully human light chain; captured by anti-human IgG (Fc) in SPR and detected with anti-human IgG in ELISA
B2: anti-human IL-15 monoclonal antibody R1A3 (antibody, V domains shown)
VH: EVQLVQSGAEVKKPGESLKISCKVSGYFFTTYWIGWVRQMPGKGLEYMGIIYPGDSDTRYSPSFQGQVTISADKSISTAYLQWSSLKASDTAMYYCARGGHWNAFDFWGQGTLVTVSS
VL: EIVLTQSPGTLSLSPGERATLSCRASQSVSSSYLAWYQQKPGQAPRLLIYGASRRATGIPDRFSGSGSGTDFTLTISRLEPEDFAVYYCQQFDASQTFGQGTKLEISR
notes: Found from a fully human Fab phage library
B3: anti-human IL-15 monoclonal antibody AMG714 (antibody, V domains shown)
VH: B2 VH with H101N, A104C, F107Y
VL: B2 VL with Q91R, F92Y, D93G, A94S, Q96H
B4: anti-human IL-15 monoclonal antibody R4G4VH+R22F11VK (antibody, V domains shown)
VH: B2 VH with F107I
VL: B1 VL with Y31G, A51S, R92H, A93Y, Y95T, L97G
notes: Mutant of R1A3; it was captured by anti-human IgG (Fc) in SPR and detected with anti-human IgG in ELISA, so a human Fc is implied; also called R4G4VH+R22FVK
B5: anti-human IL-15 monoclonal antibody R2H2VH+R22F11VK (antibody, V domains shown)
VH: B2 VH with A104S, F107T
VL: B1 VL with Y31G, A51S, R92H, A93Y, Y95T, L97G
notes: Mutant of R1A3; it was captured by anti-human IgG (Fc) in SPR and detected with anti-human IgG in ELISA, so a human Fc is implied; also called R2H2VH+R22FVK
B6: mouse anti-human IL-15 monoclonal antibody R6E11 (antibody, V domains shown)
VH: EVKLKESGPSLVQPSQSLSITCTVSGFSLTTYAVHWVRQSPGKGLEWLGVIWGAGSTDYNAAFMSRLSITKDNSKSQVFFKMNSLQADDTAIYFCAKNGAYYVMDYWGQGTSVTVSS
VL: EIVLTQSPAIMSASPGEKVTITCSASSSVSYMHWFQQRPGTSPKLWIYSTSNLASGVPARFSGSGSGTSYSLTISRMEAEDAATYYCQQRSSYPLTFGAGTKLEIK
notes: Mouse variable regions from a mouse immune phage library

Legend:
[1] = target: human IL-15 (hIL-15+hIL-15Rα-His complex) (human (homo sapiens)) (UniProt P40933); assay: cell-based or functional assay
[2] = target: human IL-15 (hIL-15+hIL-15Rα complex), tag on IL-15Rα not stated (human (homo sapiens)) (UniProt P40933); assay: cell-based or functional assay
[3] = target: cynomolgus monkey IL-15 (mfIL-15+mfIL-15Rα complex), tag on IL-15Rα not stated (cynomolgus monkey (Macaca fascicularis)) (UniProt P40221); assay: SPR (Biacore T200), as in Example 2.2
[4] = target: human IL-15 (hIL-15+hIL-15Rα complex), tag on IL-15Rα not stated (human (homo sapiens)) (UniProt P40933); assay: SPR (Biacore T200), as in Example 2.2
[5] = target: human IL-15 (hIL-15+hIL-15Rα complex), tag on IL-15Rα not stated (human (homo sapiens)) (UniProt P40933); assay: SPR (Biacore T200), as in Example 2.2; remark: listed apart in the source
[6] = target: human IL-15 (hIL-15+hIL-15Rα complex), tag on IL-15Rα not stated (human (homo sapiens)) (UniProt P40933); assay: SPR (Biacore T200), antibody captured by anti-human IgG Fc, complex as analyte, 1:1 model
[7] = target: T1, cynomolgus monkey IL-15 …; assay: SPR (Biacore T200), as in Example 2.2
[8] = target: T2, human IL-15 (hIL-15+hIL-15Rα complex), tag on IL-15Rα not stated (human (homo sapiens), UniProt P40933 49-162; Q13261 31-128); assay: cell-based or functional assay
[9] = target: T2, human IL-15 (hIL-15+hIL-15Rα complex), …; assay: SPR (Biacore T200), as in Example 2.2
[10] = target: T2, human IL-15 (hIL-15+hIL-15Rα complex), …; assay: SPR (Biacore T200), as in Example 2.2; remark: listed apart in the source
[11] = target: human IL-15 (hIL-15+hIL-15Rα-His complex) (human (homo sapiens), UniProt P40933 49-162; Q13261 31-128); assay: cell-based or functional assay
[12] = target: T3, mouse IL-15 (mIL-15+mIL-15Rα-mFc1 complex) (mouse (Mus musculus), UniProt P48346 49-162); assay: ELISA, complex coated at 1 µg/mL, anti-human IgG-HRP detection
T3 construct: also called mIL-15+mIL-15Rα-mFe1 complex

[13] = target: cynomolgus monkey IL-15 (mfIL-15+mfIL-15Rα-His complex) (cynomolgus monkey (Macaca fascicularis), UniProt P40221 49-162 (Chlorocebus aethiops entry)); assay: as above
[14] = target: T2, human IL-15 (hIL-15+hIL-15Rα complex), …; assay: SPR (Biacore T200), as in Example 2.2; remark: listed apart in the source
[15] = target: T2, human IL-15 (hIL-15+hIL-15Rα complex), …; assay: SPR (Biacore T200), antibody captured by anti-human IgG Fc, complex as analyte, 1:1 model
[16] = target: T2, human IL-15 (hIL-15+hIL-15Rα complex), …; assay: SPR (Biacore T200), as in Example 2.2; remark: listed apart in the source

human IL-15 (hIL-15+hIL-15Rα-His complex), sequence (P40933 49-162 limits assumed, chain 1 of 2): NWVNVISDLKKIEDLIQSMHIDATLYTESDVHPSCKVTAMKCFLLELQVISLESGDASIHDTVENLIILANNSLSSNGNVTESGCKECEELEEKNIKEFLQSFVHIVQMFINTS
human IL-15 (hIL-15+hIL-15Rα-His complex), sequence (Q13261 other isoform, or with tags, fused parts or gaps limits assumed, chain 2 of 2): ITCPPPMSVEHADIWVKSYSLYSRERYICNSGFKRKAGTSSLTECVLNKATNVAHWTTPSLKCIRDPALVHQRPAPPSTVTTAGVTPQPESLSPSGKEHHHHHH
T3 sequence (P48346 49-162 limits assumed, chain 1 of 2): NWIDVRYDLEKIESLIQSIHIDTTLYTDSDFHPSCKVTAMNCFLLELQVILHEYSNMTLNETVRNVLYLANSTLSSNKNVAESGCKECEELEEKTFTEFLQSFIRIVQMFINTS
T3 sequence (chain, as listed by the source limits assumed, chain 2 of 2): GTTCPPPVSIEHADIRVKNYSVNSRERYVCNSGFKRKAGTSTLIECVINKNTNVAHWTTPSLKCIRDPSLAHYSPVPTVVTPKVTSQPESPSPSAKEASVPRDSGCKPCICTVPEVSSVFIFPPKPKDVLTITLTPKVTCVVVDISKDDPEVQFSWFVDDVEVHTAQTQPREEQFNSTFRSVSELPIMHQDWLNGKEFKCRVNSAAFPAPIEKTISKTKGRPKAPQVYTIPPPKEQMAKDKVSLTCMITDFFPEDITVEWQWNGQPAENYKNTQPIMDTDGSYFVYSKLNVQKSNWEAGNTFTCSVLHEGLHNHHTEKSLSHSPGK

Molecule | Kd [7] | koff [7] | kon [7] | IC50(nM), inhibition of IL-15-induced SEAP secretion by HEK-Blue IL-2 cells [8] | Kd [10] | koff [10] | kon [10] | IC50(nM), inhibition of IL-15-driven proliferation of NK92 cells (Cell Titer-Glo) [11] | binding result [12] | binding result [13] | Kd [14] | koff [14] | kon [14] | further results
anti-human IL-15 monoclonal antibody CALY-002 |  |  |  |  |  |  |  |  |  |  |  |  |  | IC50(nM), inhibition of IL-15-driven proliferation of NK92 cells (Cell Titer-Glo) [1]: 0.106 nM; IC50(nM), inhibition of IL-15-induced SEAP secretion by HEK-Blue IL-2 cells [2]: 3.23 nM; Kd [3]: 0.148 nM; koff [3]: 0.000188 s⁻¹; kon [3]: 1.27e+06 M⁻¹ s⁻¹; Kd [4]: 0.201 nM; koff [4]: 0.000207 s⁻¹; kon [4]: 1.03e+06 M⁻¹ s⁻¹; Kd [5]: 0.337 nM; koff [5]: 0.000235 s⁻¹; kon [5]: 697000 M⁻¹ s⁻¹; Kd [6]: 0.239 nM; koff [6]: 0.000319 s⁻¹; kon [6]: 1.34e+06 M⁻¹ s⁻¹
B1 | 99.9 nM | 0.021 s⁻¹ | 210000 M⁻¹ s⁻¹ | 0.646 nM | 1.13 nM | 0.000236 s⁻¹ | 208000 M⁻¹ s⁻¹ | 0.133 nM | no binding | binds |  |  |  | Kd [9]: 1.22 nM; koff [9]: 0.000308 s⁻¹; kon [9]: 252000 M⁻¹ s⁻¹
B2 | 0.722 nM | 0.000398 s⁻¹ | 552000 M⁻¹ s⁻¹ | 0.634 nM | 0.612 nM | 0.00038 s⁻¹ | 621000 M⁻¹ s⁻¹ | 0.126 nM | no binding |  | 0.352 nM | 0.000548 s⁻¹ | 1.56e+06 M⁻¹ s⁻¹ | Kd [15]: 0.381 nM; koff [15]: 0.000537 s⁻¹; kon [15]: 1.41e+06 M⁻¹ s⁻¹
B3 | 2.12 nM | 0.00124 s⁻¹ | 583000 M⁻¹ s⁻¹ |  |  |  |  |  |  |  |  |  |  | 
B4 | 0.448 nM | 0.000172 s⁻¹ | 384000 M⁻¹ s⁻¹ | 0.312 nM | 0.435 nM | 0.000196 s⁻¹ | 450000 M⁻¹ s⁻¹ | 0.109 nM | no binding | binds | 0.346 nM | 0.00029 s⁻¹ | 838000 M⁻¹ s⁻¹ | 
B5 | 0.463 nM | 0.000171 s⁻¹ | 365000 M⁻¹ s⁻¹ | 0.397 nM | 0.57 nM | 0.000204 s⁻¹ | 357000 M⁻¹ s⁻¹ | 0.119 nM | no binding | binds | 0.379 nM | 0.000299 s⁻¹ | 791000 M⁻¹ s⁻¹ | 
B6 |  |  |  |  |  |  |  |  |  |  |  |  |  | Kd [16]: 0.689 nM; koff [16]: 0.000267 s⁻¹; kon [16]: 387000 M⁻¹ s⁻¹; Kd [9]: 0.983 nM; koff [9]: 0.000399 s⁻¹; kon [9]: 406000 M⁻¹ s⁻¹
